{"source": "the RNAGym collection of RNA variant scans (doi:10.1021/acssynbio.7b00057)", "parents": {"B1": {"name": "Pistol ribozyme (parent)", "chain": "GGGUCGUUGUUCCAUAAUCGCGUGGAUAUGGCACGCAAGUUUCUACCGGGCACCGUAAAUGUCCGACUGGAGCCGUUCGGGCGGCUAUAAACAGACCUCAGGCCCGAAGCGUGGCGGCACCUGCCGCCGGUGGUAAAAAAGAUCGGAAGAGCACACGUCU"}}, "data": [{"variants_of": "B1", "experiment": "aptazyme ON/OFF ratio, guanine; higher = stronger switching; co-transcriptional cleavage with and without guanine", "values": [{"variant": "U7A U8G G9A U10G U11G C12G C13G", "aptazyme ON/OFF ratio": 1.68}, {"variant": "U7A U8G G9A U10G U11G C12G C13U", "aptazyme ON/OFF ratio": 1.53}, {"variant": "U7A U8G G9A U11A C13U", "aptazyme ON/OFF ratio": 1.55}, {"variant": "U7A U8G G9A U11A C13A", "aptazyme ON/OFF ratio": 1.24}, {"variant": "U7A U8G G9A U11A C13G", "aptazyme ON/OFF ratio": 1.21}, {"variant": "U7A U8G G9C U10C U11C C12A C13G", "aptazyme ON/OFF ratio": 1.06}, {"variant": "U7A U8G G9C U10C U11C C12A C13U", "aptazyme ON/OFF ratio": 1.04}, {"variant": "U7A U8G G9C U10C U11C C12A C13A", "aptazyme ON/OFF ratio": 1.01}, {"variant": "U7A U8G G9C C12A C13A", "aptazyme ON/OFF ratio": 1.46}, {"variant": "U7A U8G G9C C12A C13G", "aptazyme ON/OFF ratio": 1.16}, {"variant": "U7A U8G G9C C12A C13U", "aptazyme ON/OFF ratio": 1.29}, {"variant": "U7A U8G G9A U11A C12A C13U", "aptazyme ON/OFF ratio": 1.16}, {"variant": "U7A U8G G9A U11A C12A C13A", "aptazyme ON/OFF ratio": 1.39}, {"variant": "U7A U8G G9A U11A C12A C13G", "aptazyme ON/OFF ratio": 1.21}, {"variant": "U7A U8G G9A U11A C12G C13A", "aptazyme ON/OFF ratio": 1.19}, {"variant": "U7A U8G G9A U11A C12G C13U", "aptazyme ON/OFF ratio": 1.25}, {"variant": "U7A U8G G9A U11A C12G C13G", "aptazyme ON/OFF ratio": 1.33}, {"variant": "U7A U8G G9C U10C U11A C12G C13A", "aptazyme ON/OFF ratio": 1.23}, {"variant": "U7A U8G G9C U10C U11A C12G C13G", "aptazyme ON/OFF ratio": 1.21}, {"variant": "U7A U8G G9C U10C U11A C12G C13U", "aptazyme ON/OFF ratio": 1.17}, {"variant": "U7A U8G G9A U10C U11G", "aptazyme ON/OFF ratio": 1.74}, {"variant": "U7A U8G G9A U10C U11A", "aptazyme ON/OFF ratio": 1.68}, {"variant": "U7A U8G G9A U10C U11C", "aptazyme ON/OFF ratio": 1.02}, {"variant": "U7A U8G G9C U10C C13U", "aptazyme ON/OFF ratio": 1.28}, {"variant": "U7A U8G G9C U10C C13G", "aptazyme ON/OFF ratio": 1.1}, {"variant": "U7A U8G G9C U10C C13A", "aptazyme ON/OFF ratio": 1.09}, {"variant": "U7A U8G G9C U10A U11A C12G C13U", "aptazyme ON/OFF ratio": 1.38}, {"variant": "U7A U8G G9C U10A U11A C12G C13A", "aptazyme ON/OFF ratio": 1.15}, {"variant": "U7A U8G G9C U10A U11A C12G C13G", "aptazyme ON/OFF ratio": 1.36}, {"variant": "U7A U8G G9A U10C U11A C12U C13G", "aptazyme ON/OFF ratio": 1.06}, {"variant": "U7A U8G G9A U10C U11A C12U C13U", "aptazyme ON/OFF ratio": 1.1}, {"variant": "U7A U8G G9A U10C U11A C12U C13A", "aptazyme ON/OFF ratio": 1.11}, {"variant": "U7A U8G G9C U10C U11G C12G C13U", "aptazyme ON/OFF ratio": 1.09}, {"variant": "U7A U8G G9C U10C U11G C12G C13A", "aptazyme ON/OFF ratio": 1.18}, {"variant": "U7A U8G G9C U10C U11G C12G C13G", "aptazyme ON/OFF ratio": 1.18}, {"variant": "U7A U8G G9C U10C U11G C12G", "aptazyme ON/OFF ratio": 1.16}, {"variant": "U7A U8G G9C U10C U11G C12U", "aptazyme ON/OFF ratio": 1.03}, {"variant": "U7A U8G G9C U10C U11G C12A", "aptazyme ON/OFF ratio": 1.06}, {"variant": "U7A U8G G9A U10G C12G", "aptazyme ON/OFF ratio": 1.36}, {"variant": "U7A U8G G9A U10G C12A", "aptazyme ON/OFF ratio": 1.24}, {"variant": "U7A U8G G9A U10G C12U", "aptazyme ON/OFF ratio": 1.21}, {"variant": "U7A U8G G9A U11C C13A", "aptazyme ON/OFF ratio": 1.12}, {"variant": "U7A U8G G9A U11C C13G", "aptazyme ON/OFF ratio": 1.09}, {"variant": "U7A U8G G9A U11C C13U", "aptazyme ON/OFF ratio": 1.2}, {"variant": "U7A U8G G9C U10C U11G C13U", "aptazyme ON/OFF ratio": 1.23}, {"variant": "U7A U8G G9C U10C U11G C13A", "aptazyme ON/OFF ratio": 1.25}, {"variant": "U7A U8G G9C U10C U11G C13G", "aptazyme ON/OFF ratio": 1.26}, {"variant": "U7A U8G G9C U10A U11A C13G", "aptazyme ON/OFF ratio": 1.15}, {"variant": "U7A U8G G9C U10A U11A C13U", "aptazyme ON/OFF ratio": 1.26}, {"variant": "U7A U8G G9C U10A U11A C13A", "aptazyme ON/OFF ratio": 1.15}, {"variant": "U7A U8G G9C U10A C13A", "aptazyme ON/OFF ratio": 1.19}, {"variant": "U7A U8G G9C U10A C13U", "aptazyme ON/OFF ratio": 1.3}, {"variant": "U7A U8G G9C U10A C13G", "aptazyme ON/OFF ratio": 1.15}, {"variant": "U7A U8G G9C U10G U11A C12A", "aptazyme ON/OFF ratio": 1.42}, {"variant": "U7A U8G G9C U10G U11A C12G", "aptazyme ON/OFF ratio": 1.39}, {"variant": "U7A U8G G9C U10G U11A C12U", "aptazyme ON/OFF ratio": 1.2}, {"variant": "U7A U8G G9C U10G U11A C12U C13G", "aptazyme ON/OFF ratio": 1.23}, {"variant": "U7A U8G G9C U10G U11A C12U C13A", "aptazyme ON/OFF ratio": 1.33}, {"variant": "U7A U8G G9C U10C", "aptazyme ON/OFF ratio": 2.58}, {"variant": "U7A U8G G9C U10G", "aptazyme ON/OFF ratio": 1.46}, {"variant": "U7A U8G G9C U10A", "aptazyme ON/OFF ratio": 1.24}, {"variant": "U7A U8G G9A U10C U11G C13U", "aptazyme ON/OFF ratio": 1.25}, {"variant": "U7A U8G G9A U10C U11G C13G", "aptazyme ON/OFF ratio": 1.3}, {"variant": "U7A U8G G9A U10C U11G C13A", "aptazyme ON/OFF ratio": 1.19}, {"variant": "U7A U8G G9A U11C C12G C13A", "aptazyme ON/OFF ratio": 1.32}, {"variant": "U7A U8G G9A U11C C12G C13U", "aptazyme ON/OFF ratio": 1.14}, {"variant": "U7A U8G G9A U11C C12G C13G", "aptazyme ON/OFF ratio": 1.4}, {"variant": "U7A U8G G9A U10C U11A C12A C13G", "aptazyme ON/OFF ratio": 1.11}, {"variant": "U7A U8G G9A U10C U11A C12A C13A", "aptazyme ON/OFF ratio": 1.12}, {"variant": "U7A U8G G9A U10C U11A C12A C13U", "aptazyme ON/OFF ratio": 1.19}, {"variant": "U7A U8G G9A U10G U11A", "aptazyme ON/OFF ratio": 1.06}, {"variant": "U7A U8G G9A U10G U11G", "aptazyme ON/OFF ratio": 1.39}, {"variant": "U7A U8G G9A U10G U11C", "aptazyme ON/OFF ratio": 1.01}, {"variant": "U7A U8G G9C U10A U11C C12U C13G", "aptazyme ON/OFF ratio": 1.59}, {"variant": "U7A U8G G9C U10A U11C C12U C13U", "aptazyme ON/OFF ratio": 1.23}, {"variant": "U7A U8G G9C U10A U11C C12U C13A", "aptazyme ON/OFF ratio": 1.26}, {"variant": "U7A U8G G9C U10C U11G C12A C13A", "aptazyme ON/OFF ratio": 1.17}, {"variant": "U7A U8G G9C U10C U11G C12A C13U", "aptazyme ON/OFF ratio": 1.06}, {"variant": "U7A U8G G9C U10C U11G C12A C13G", "aptazyme ON/OFF ratio": 1.15}, {"variant": "U7A U8G G9C U10C U11A C12A C13U", "aptazyme ON/OFF ratio": 1.18}, {"variant": "U7A U8G G9C U10C U11A C12A C13G", "aptazyme ON/OFF ratio": 1.1}, {"variant": "U7A U8G G9C U10C U11A C12A C13A", "aptazyme ON/OFF ratio": 1.17}, {"variant": "U7A U8G G9A U11A C12U C13G", "aptazyme ON/OFF ratio": 1.28}, {"variant": "U7A U8G G9A U11A C12U C13U", "aptazyme ON/OFF ratio": 1.32}]}]}
